Bounds are passed on as bounds.

What is called Kd is a measure of binding affinity in units of concentration. What is called koff is the rate constant with which the complex falls apart. As a reminder, the kon is the second-order rate constant of association. The EC50 (read off the curve) is the concentration needed to bring the measured effect to its halfway point.

The target of one experiment is T1, recombinant human FAP (human, UniProt Q12884 26-760).
T1 construct: also called rhFAP
T1 sequence (looked up): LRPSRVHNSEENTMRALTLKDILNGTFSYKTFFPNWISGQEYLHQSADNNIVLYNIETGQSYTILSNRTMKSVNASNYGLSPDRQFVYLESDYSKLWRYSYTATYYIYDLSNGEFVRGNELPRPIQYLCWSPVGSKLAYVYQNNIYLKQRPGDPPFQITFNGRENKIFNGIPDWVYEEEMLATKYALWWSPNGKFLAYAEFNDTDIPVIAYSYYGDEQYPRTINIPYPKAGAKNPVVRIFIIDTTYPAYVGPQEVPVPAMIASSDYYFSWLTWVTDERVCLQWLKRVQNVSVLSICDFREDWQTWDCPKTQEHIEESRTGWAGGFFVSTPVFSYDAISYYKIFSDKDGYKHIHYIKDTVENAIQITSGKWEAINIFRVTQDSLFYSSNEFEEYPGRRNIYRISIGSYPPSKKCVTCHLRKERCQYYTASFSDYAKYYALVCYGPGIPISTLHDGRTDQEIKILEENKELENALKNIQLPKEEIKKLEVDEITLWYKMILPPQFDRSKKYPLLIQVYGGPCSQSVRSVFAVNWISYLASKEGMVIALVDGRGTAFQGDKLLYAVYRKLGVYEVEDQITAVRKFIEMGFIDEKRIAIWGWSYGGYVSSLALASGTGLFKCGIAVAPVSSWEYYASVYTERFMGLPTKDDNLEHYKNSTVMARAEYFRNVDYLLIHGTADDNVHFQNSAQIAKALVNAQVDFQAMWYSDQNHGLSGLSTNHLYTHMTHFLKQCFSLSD
Nature of the experiment: SPR, fusion protein captured by anti-human IgG (Fc) on CM5, recombinant human FAP as analyte, 1:1 binding model. On the procedure:
Specifically, the surface of the CM5 chip was activated with a 1:1 mixture of […] NHS (N-hydroxysuccinimide) and 200 nM EDC (1-ethyl-3-(3-dimethylaminopropyl)carbodiimide), and 20 μg/mL of anti-human IgG (Fc) antibody was immobilized for 400 seconds at a rate of 10 μL/min. The remaining active ester groups were blocked with 1 M ethanolamine. T3.01, T3.07, and T3.14 were diluted to 2 μg/mL, 1 μg/mL, and 2 μg/mL, respectively, and reacted on the CM5 chip immobilized with the anti-human IgG (Fc) antibody. The recombinant human FAP was diluted to 50 nM or 100 nM in 1×HBS-EP+buffer solution and diluted by serial dilution. The diluted recombinant human FAP was reacted at a rate of 30 μL/min. The association and dissociation times were 180 seconds and 400 seconds, respectively. After the dissociation step, stabilization was performed for 60 seconds, and then the regeneration step was performed for 30 seconds with a 10 mM glycine pH 1.5 solution at a rate of 30 μL/min.
Background: Surface plasmon resonance follows binding to a sensor surface in real time, without labels.

For experiment [1], the target named is T2, human LTβR on A375 cells (human, UniProt P36941 31-435).
T2 construct: whole, on cells; Endogenous receptor of a human cell line; also called LTβR expressing A375 cells; LTβR expressing cell line
Nature of the experiment: flow cytometry on A375 cells, serial dilution from 500 nM, anti-human IgG detection. As to the method:
(§1) Specifically, the A375 cell line was prepared by suspending in a FACS buffer solution at 1×10⁵ cells/100 μL, and treated with 100 μL each of T3.01, T3.07, T3.04, and T3.18 prepared by suspending at 500 nM and diluting by serial dilution. The cells were washed twice with a FACS buffer solution. The cells were stained with an anti-human IgG antibody (Biolegend). The expression ratio of the stained cells was measured using BD LSR and analyzed using FlowJo software.
In general terms: Flow cytometry measures light scatter and fluorescence of single cells or particles in a stream.

A further experiment concerns the target T3, human DcR3 (human, UniProt O95407 30-300).
T3 construct: also called LIGHT receptor DcR3
T3 sequence (looked up): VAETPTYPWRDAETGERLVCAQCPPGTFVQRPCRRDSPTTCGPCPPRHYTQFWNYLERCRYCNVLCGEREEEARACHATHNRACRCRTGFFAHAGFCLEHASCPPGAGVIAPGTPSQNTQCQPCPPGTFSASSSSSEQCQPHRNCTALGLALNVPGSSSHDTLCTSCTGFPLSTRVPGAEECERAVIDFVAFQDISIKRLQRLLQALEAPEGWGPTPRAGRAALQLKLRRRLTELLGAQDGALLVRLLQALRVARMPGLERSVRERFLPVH
The experiment can be described thus: SPR, human DcR3 immobilised on CM5, fusion protein as analyte, 1:1 binding model. As to the method:
(§2) Specifically, the surface of the CM5 chip was activated with a 1:1 mixture of […], and 5 to 6 μg/mL of human DcR3 was immobilized for 60 seconds at a rate of 10 μL/min. The remaining active ester groups were blocked with 1 M ethanolamine. T3.01, T3.07, T3.09, T3.14, and T3.18 were each diluted to 50 nM or 200 nM in 1×HBS-EP+buffer solution and diluted by serial dilution. The diluted fusion proteins were reacted at a rate of 30 μL/min. The association and dissociation times were 180 seconds and 400 seconds, respectively. After the dissociation step, stabilization was performed for 60 seconds, and then the regeneration step was performed for 30 seconds with a 10 mM glycine pH 1.5 solution at a rate of 30 μL/min.

For experiment [2], the target named is T2, human LTβR on A375 cells. The experiment can be described thus: cell-based or functional assay.
The target in experiment [3] is T4, recombinant human lymphotoxin beta receptor (LTβR) (human, UniProt P36941 28-227, limits assumed).
T4 construct: neither construct is described; also called human LTβR; recombinant human LTβR protein
Nature of the experiment: SPR, human LTβR immobilised on CM5, fusion protein as analyte, 1:1 binding model. On the procedure: as §2, with “5” for “5 to 6”, “LTβR” for “DcR3”, “T3.01, T3.07, T3.09, T3.14, and T3.18 were each diluted to 50 nM or 200 nM in 1×HBS-EP+buffer solution and diluted by serial dilution.” left out

The target of experiment [4] is T5, recombinant human herpes virus entry mediator (HVEM) (human, UniProt Q92956 39-202).
T5 construct: neither construct is described; also called human HVEM; recombinant human HVEM protein (R&D systems)
T5 sequence (looked up): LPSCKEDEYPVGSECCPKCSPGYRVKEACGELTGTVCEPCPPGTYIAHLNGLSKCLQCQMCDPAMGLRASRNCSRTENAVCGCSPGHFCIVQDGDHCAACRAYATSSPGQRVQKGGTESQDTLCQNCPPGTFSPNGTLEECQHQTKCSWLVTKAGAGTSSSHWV
The experiment can be described thus: SPR, human HVEM immobilised on CM5, fusion protein as analyte, 1:1 binding model. On the procedure: as §2, with “HVEM” for “DcR3”, “100” for “50 nM or 200”

The target of experiment [5] is T2, human LTβR on A375 cells. The experiment can be described thus: flow cytometry on A375 cells, serial dilutions, anti-human IgG detection, MFI against TMEkine [nM]. On the procedure: as §1
The target in experiment [6] is T5, recombinant human herpes virus entry …. Nature of the experiment: sandwich ELISA: plate coated with recombinant human HVEM 1 ug/mL, fusion protein from 1 nM in serial dilution, detected with biotinylated recombinant human FAP and streptavidin conjugate, OD 450 nm. As to the method:
Considering that LIGHT of the fusion protein must bind to the herpes virus entry mediator (HVEM) for the action, it was confirmed that T3.01 binds to the recombinant human HVEM, as follows: [0370] (i) The recombinant human HVEM protein (R&D systems) was suspended at 1 μg/mL, dispensed in a 96-well immune plate, and treated for 24 hours. [0371] (ii) The wells were washed with a wash solution, and then blocking was performed for 1 hour with 1% BSA (bovine serum albumin, Sigma) solution. [0372] (iii) The wells were washed with a wash solution, and then T3.01, T3.14, T3.16, T3.17, T3.18 and T3.10, or T3.05, T3.06, T3.04, T3.14 and T3.10 were suspended at 1 nM and diluted by serial dilution. The wells were treated with the diluted T3.01, T3.14, T3.16, T3.17, T3.18 and T3.10, or T3.05, T3.06, T3.04, T3.14 and T3.10 for 2 hours. [0373] (iv) The wells were washed with a wash solution, and then treated with the human recombinant FAP-biotin diluted at 0.5 μg/mL for 2 hours. [0374] (v) The wells were washed with a wash solution, and then treated with streptavidin-RP for 20 minutes. [0375] (vi) The wells were washed with a wash solution, and then treated with a substrate solution for 20 minutes. [0376] (vii) The wells were treated with a stop solution, and the absorbance was measured at 450 nm.
Background: In an ELISA, binding on a coated surface is turned into a signal by an enzyme label.

T4 sequence (P36941 28-227 limits assumed): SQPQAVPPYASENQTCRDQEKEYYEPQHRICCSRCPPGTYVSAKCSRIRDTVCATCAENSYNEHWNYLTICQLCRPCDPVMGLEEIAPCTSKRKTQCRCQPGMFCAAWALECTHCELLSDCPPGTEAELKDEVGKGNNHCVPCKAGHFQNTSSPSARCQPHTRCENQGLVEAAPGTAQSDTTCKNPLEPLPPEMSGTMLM
T2 sequence (P36941 31-435): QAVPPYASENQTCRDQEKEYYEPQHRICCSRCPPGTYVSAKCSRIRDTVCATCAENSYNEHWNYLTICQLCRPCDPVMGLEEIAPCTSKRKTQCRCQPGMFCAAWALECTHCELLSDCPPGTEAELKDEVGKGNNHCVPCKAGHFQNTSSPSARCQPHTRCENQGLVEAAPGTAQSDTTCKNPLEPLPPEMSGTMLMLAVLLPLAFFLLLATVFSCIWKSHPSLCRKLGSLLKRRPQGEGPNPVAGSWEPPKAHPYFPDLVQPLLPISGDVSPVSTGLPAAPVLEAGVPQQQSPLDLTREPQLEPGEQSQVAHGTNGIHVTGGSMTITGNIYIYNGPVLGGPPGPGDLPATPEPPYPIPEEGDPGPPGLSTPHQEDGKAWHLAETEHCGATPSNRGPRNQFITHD

B1: T3.07 (anti-hu FAP-hu scLIGHT2/anti-hu FAP-hu LIGHT, hu IgG1 DANG (2 + 1)) (bispecific antibody)
heavy 1: QVQLVQSGAEVKKPGASVKVSCKTSRYTFTEYTIHWVRQAPGQRLEWIGGINPNNGIPNYNQKFKGRVTITVDTSASTAYMELSSLRSEDTAVYYCARRRIAYGYDEGHAMDYWGQGTLVTVSSASTKGPSVFPLAPSSKSTSGGTAALGCLVKDYFPEPVTVSWNSGALTSGVHTFPAVLQSSGLYSLSSVVTVPSSSLGTQTYICNVNHKPSNTKVDKKVEPKSCDKTHTCPPCPAPELLGGPSVFLFPPKPKDTLMISRTPEVTCVVVAVSHEDPEVKFNWYVDGVEVHNAKTKPREEQYGSTYRVVSVLTVLHQDWLNGKEYKCKVSNKALPAPIEKTISKAKGQPREPQVYTLPPSRDELTKNQVSLWCLVKGFYPSDIAVEWESNGQPENNYKTTPPVLDSDGSFFLYSKLTVDKSRWQQGNVFSCSVMHEALHNHYTQKSLSLSPGKGGGGSGGGGSEVNPAAHLTGANSSLTGSGGPLLWETQLGLAFLRGLSYHDGALVVTKAGYYYIYSKVQLGGVGCPLGLASTITHGLYKRTPRYPEELELLVSQQSPCGRATSSSRVWWDSSFLGGVVHLEAGEKVVVRVLDERLVRLRDGTRSYFGAFMVGGSGEVNPAAHLTGANSSLTGSGGPLLWETQLGLAFLRGLSYHDGALVVTKAGYYYIYSKVQLGGVGCPLGLASTITHGLYKRTPRYPEELELLVSQQSPCGRATSSSRVWWDSSFLGGVVHLEAGEKVVVRVLDERLVRLRDGTRSYFGAFMV
heavy 2: not shown
light: not shown
notes: Knob-into-hole; two anti-FAP arms, LIGHT dimer and LIGHT monomer at the C-termini of the two heavy chains; two copies of the light chain follow from the (2 + 1) format
As to B1, the Kd with recombinant human FAP stood at 303 pM; in the experiment with human DcR3, 598 pM; in experiment [3] it was 935 pM; in experiment [4], 3990 pM. The koff with recombinant human FAP turned out to be 0.000118 s⁻¹; with human DcR3 it was 0.000195 s⁻¹; in experiment [3], 0.000382 s⁻¹; in experiment [4], 0.00114 s⁻¹. The kon was determined as 391000 M⁻¹ s⁻¹ with recombinant human FAP, 327000 M⁻¹ s⁻¹ with human DcR3, 409000 M⁻¹ s⁻¹ in experiment [3] and 285000 M⁻¹ s⁻¹ in experiment [4]. For the same molecule, in the experiment with human LTβR on A375 cells [1], the “percent of cells bound” value was at least 96%. Further, in the experiment with human LTβR on A375 cells [2], the “IL-8 secretion of A375 cells, EC50 (FIG. 15b)” value was found to be 47.7 pM.

B2: T3.04 (anti-hu FAP/hu scLIGHT3(GGGGS4), hu IgG1 DANG) (bispecific antibody)
heavy: QVQLVQSGAEVKKPGASVKVSCKTSRYTFTEYTIHWVRQAPGQRLEWIGGINPNNGIPNYNQKFKGRVTITVDTSASTAYMELSSLRSEDTAVYYCARRRIAYGYDEGHAMDYWGQGTLVTVSSASTKGPSVFPLAPSSKSTSGGTAALGCLVKDYFPEPVTVSWNSGALTSGVHTFPAVLQSSGLYSLSSVVTVPSSSLGTQTYICNVNHKPSNTKVDKKVEPKSCDKTHTCPPCPAPELLGGPSVFLFPPKPKDTLMISRTPEVTCVVVAVSHEDPEVKFNWYVDGVEVHNAKTKPREEQYGSTYRVVSVLTVLHQDWLNGKEYKCKVSNKALPAPIEKTISKAKGQPREPQVYTLPPSRDELTKNQVSLWCLVKGFYPSDIAVEWESNGQPENNYKTTPPVLDSDGSFFLYSKLTVDKSRWQQGNVFSCSVMHEALHNHYTQKSLSLSPGK
light: not shown
chain: not shown
notes: Knob-into-hole; LIGHT homotrimer with (GGGGS)4 linkers
As to B2, the “percent of cells bound” value in the experiment with human LTβR on A375 cells [1] is at least 96%. The “IL-8 secretion of A375 cells, EC50 (FIG. 15a)” value with human LTβR on A375 cells [2] was found to be 60.4 pM. The “EC50 (read off the curve)” value in the experiment with human LTβR on A375 cells [5] is around 4000 pM. Also, in experiment [6], the binding result is “binds”.

Source of the values: patent US20250368754A1 (KANAPH THERAPEUTICS, published 2025).
